Test results as given in patent US20120219562A1 (AbbVie / Abbott, published 2012).

T1: human interleukin 12 (p70 heterodimer of p35 and p40) (human, UniProt P29459 23-219; P29460 23-328)
T1 construct: Recombinant human IL-12; also called hIL-12; IL-12
T1 sequence (looked up) 1: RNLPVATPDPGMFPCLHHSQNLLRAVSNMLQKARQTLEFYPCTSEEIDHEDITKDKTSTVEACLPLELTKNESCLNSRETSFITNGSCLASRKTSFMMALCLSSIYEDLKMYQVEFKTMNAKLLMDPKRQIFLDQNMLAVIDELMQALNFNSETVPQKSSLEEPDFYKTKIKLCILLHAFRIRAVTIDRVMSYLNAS
T1 sequence (looked up) 2: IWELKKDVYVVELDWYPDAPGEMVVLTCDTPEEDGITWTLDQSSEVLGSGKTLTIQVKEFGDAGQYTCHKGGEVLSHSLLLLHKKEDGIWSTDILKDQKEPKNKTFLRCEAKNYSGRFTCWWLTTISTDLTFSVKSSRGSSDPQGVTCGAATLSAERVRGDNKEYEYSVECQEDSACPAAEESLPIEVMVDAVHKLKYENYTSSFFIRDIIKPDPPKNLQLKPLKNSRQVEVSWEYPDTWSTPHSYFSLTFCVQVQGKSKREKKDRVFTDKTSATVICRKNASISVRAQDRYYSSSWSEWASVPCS

T2: human interleukin 12 (human, UniProt P29459 23-219; P29460 23-328)
T2 construct: heterodimer of p35 and p40 linked by a disulfide bridge; also called hIL-12; IL-12
T2 sequence (looked up) 1: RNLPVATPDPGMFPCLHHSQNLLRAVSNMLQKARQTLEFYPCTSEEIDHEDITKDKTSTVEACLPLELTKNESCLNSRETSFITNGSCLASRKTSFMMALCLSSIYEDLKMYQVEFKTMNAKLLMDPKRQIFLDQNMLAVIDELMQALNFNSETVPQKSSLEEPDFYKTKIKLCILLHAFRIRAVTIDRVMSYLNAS
T2 sequence (looked up) 2: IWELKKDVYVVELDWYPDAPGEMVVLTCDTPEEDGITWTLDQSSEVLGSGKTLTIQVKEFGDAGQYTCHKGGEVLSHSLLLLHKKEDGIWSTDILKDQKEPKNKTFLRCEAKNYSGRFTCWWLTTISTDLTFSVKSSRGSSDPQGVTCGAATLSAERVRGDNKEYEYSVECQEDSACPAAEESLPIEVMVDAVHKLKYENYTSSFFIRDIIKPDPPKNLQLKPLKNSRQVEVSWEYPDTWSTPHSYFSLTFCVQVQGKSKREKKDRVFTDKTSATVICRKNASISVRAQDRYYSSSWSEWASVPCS

B1: SEQ ID NO: 477 (Y61, T at L30) (antibody, V domains shown)
VH: QVQLVQSGGGVVQPGRSLRLSCAASGFTFSSYGMHWVRQAPGKGLEWVAFIRYDGSNKYYADSVKGRFTISRDNSKNTLYLQMKSLRAEDTAVYYCKTHGSHDNWGQGTMVTVSS
VL: SYVLTQPPSVSGTPGQRVTISCSGGRSNIGTNTVKWYQQLPGTAPKLLIYGNDQRPSGVPDRFSGSKSGTSASLAITGVQAEDEADYYCQSYDRGTHPALLFGTGTKVTVLG
B2: SEQ ID NO: 479 (Y61, D at L31) (antibody, V domains shown)
VH: QVQLVQSGGGVVQPGRSLRLSCAASGFTFSSYGMHWVRQAPGKGLEWVAFIRYDGSNKYYADSVKGRFTISRDNSKNTLYLQMKSLRAEDTAVYYCKTHGSHDNWGQGTMVTVSS
VL: SYVLTQPPSVSGTPGQRVTISCSGGRSNIGSDTVKWYQQLPGTAPKLLIYGNDQRPSGVPDRFSGSKSGTSASLAITGVQAEDEADYYCQSYDRGTHPALLFGTGTKVTVLG
B3: SEQ ID NO: 478 (Y61, P at L30) (antibody, V domains shown)
VH: QVQLVQSGGGVVQPGRSLRLSCAASGFTFSSYGMHWVRQAPGKGLEWVAFIRYDGSNKYYADSVKGRFTISRDNSKNTLYLQMKSLRAEDTAVYYCKTHGSHDNWGQGTMVTVSS
VL: SYVLTQPPSVSGTPGQRVTISCSGGRSNIGPNTVKWYQQLPGTAPKLLIYGNDQRPSGVPDRFSGSKSGTSASLAITGVQAEDEADYYCQSYDRGTHPALLFGTGTKVTVLG
B4: C10 (antibody, V domains shown)
VH: QVQLVQSGGGVVQPGRSLRLSCAASGFTFSSYGMHWVRQAPGKGLEWVAFIRYDGSNKYYADSVKGRFTISRDNSKNTLYLQMKSLRAEDTAVYYCKTHGSHDNWGQGTMVTVSS
VL: SYVLTQPPSVSGTPGQRVTISCSGGRSNIGSNTVKWYQQLPGTAPKLLIYGNDQRPSGVPDRFSGSKSGTSASLAITGVQAEDEADYYCQSYDRGNSPIPTFGTGTKVTVLG
B5: 43-E3 (antibody, V domains shown)
VH: QVQLVQSGGGVVQPGRSLRLSCAASGFTFSSYGMHWVRQAPGKGLEWVAFIRYDGSNKYYADSVKGRFTISRDNSKNTLYLQMKSLRAEDTAVYYCKTHGSHDNWGQGTMVTVSS
VL: SYVLTQPPSVSGTPGQRVTISCSGGRSNIGSNTVKWYQQLPGTAPKLLIYGNDQRPSGVPDRFSGSKSGTSASLAITGVQAEDEADYYCQSYDRGSHPAAEFGTGTKVTVLG
B6: B6 (antibody, V domains shown)
VH: QVQLVQSGGGVVQPGRSLRLSCAASGFTFSSYGMHWVRQAPGKGLEWVAFIRYDGSNKYYADSVKGRFTISRDNSKNTLYLQMKSLRAEDTAVYYCKTHGSHDNWGQGTMVTVSS
VL: SYVLTQPPSVSGTPGQRVTISCSGGRSNIGSNTVKWYQQLPGTAPKLLIYGNDQRPSGVPDRFSGSKSGTSASLAITGVQAEDEADYYCQSYDSGSLRRILFGTGTKVTVL
B7: 136-9 (antibody, V domains shown)
VH: QVQLVQSGGGVVQPGRSLRLSCAASGFTFSSYGMHWVRQAPGKGLEWVAFIRYDGSNKYYADSVKGRFTISRDNSKNTLYLQMKSLRAEDTAVYYCTTHGSHDDWGQGTMVTVSS
VL: SYVLTQPPSVSGTPGQRVTISCSGGRSNIGSNTVKWYQQLPGTAPKLLIYGNDQRPSGVPDRFSGSKSGTSASLAITGVQAEDEADYYCQTYDISESGSRVFGTGTKVTVL
B8: C4 (antibody, V domains shown)
VH: QVQLVQSGGGVVQPGRSLRLSCAASGFTFSSYGMHWVRQAPGKGLEWVAFIRYDGSNKYYADSVKGRFTISRDNSKNTLYLQMKSLRAEDTAVYYCKTHGSHDNWGQGTMVTVSS
VL: SYVLTQPPSVSGTPGQRVTISCSGGRSNIGSNTVKWYQQLPGTAPKLLIYGNDQRPSGVPDRFSGSKSGTSASLAITGVQAEDEADYYCQSYDRGTPNNSFFGTGTKVTVL
B9: 43-E9 (antibody, V domains shown)
VH: QVQLVQSGGGVVQPGRSLRLSCAASGFTFSSYGMHWVRQAPGKGLEWVAFIRYDGSNKYYADSVKGRFTISRDNSKNTLYLQMKSLRAEDTAVYYCKTHGSHDNWGQGTMVTVSS
VL: SYVLTQPPSVSGTPGQRVTISCSGGRSNIGSNTVKWYQQLPGTAPKLLIYGNDQRPSGVPDRFSGSKSGTSASLAITGVQAEDEADYYCQSYDRGTIPSIEFGTGTKVTVLG

The binders below were run against T1, human interleukin 12 (p70 heterodimer …) (assay: SPR (BIAcore), off-rate).

Question: How did the koff turn out when B1 was run?
Answer: 0.000226 s⁻¹

Question: With B2 as the binder, how does the koff read?
Answer: 0.00058 s⁻¹

Question: Which koff does the source give for B3 here?
Answer: 0.00025 s⁻¹

Each binder was assayed against T2, human interleukin 12 (assay: SPR (BIAcore)).

Question: B4 was tested. Which koff did it give?
Answer: 0.0031 s⁻¹

Question: B5 was tested. Which koff did it give?
Answer: 0.0008 s⁻¹

Question: For B6, which koff is on record?
Answer: 0.00758 s⁻¹

Question: How did the koff turn out when B7 was run?
Answer: 0.0032 s⁻¹

Question: With B8 as the binder, how does the koff read?
Answer: 0.00323 s⁻¹

Question: With B9 as the binder, how does the koff read?
Answer: 0.0008 s⁻¹
